T1: SsArd1 E35A mutant (Sulfolobus solfataricus) (UniProt Q980R9)
T1 sequence: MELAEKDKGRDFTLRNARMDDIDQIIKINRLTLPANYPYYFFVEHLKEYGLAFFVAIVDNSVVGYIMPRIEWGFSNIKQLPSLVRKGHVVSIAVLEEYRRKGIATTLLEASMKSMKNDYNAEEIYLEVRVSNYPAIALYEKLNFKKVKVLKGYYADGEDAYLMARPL

T2: SsArd1 E35V mutant (Sulfolobus solfataricus) (UniProt Q980R9)
T2 sequence: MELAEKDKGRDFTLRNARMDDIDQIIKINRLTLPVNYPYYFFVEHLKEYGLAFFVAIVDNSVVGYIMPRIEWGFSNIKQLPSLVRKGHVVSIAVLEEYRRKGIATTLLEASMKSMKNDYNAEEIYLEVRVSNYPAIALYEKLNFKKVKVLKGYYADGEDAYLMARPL

T3: SsArd1 E35F mutant (Sulfolobus solfataricus) (UniProt Q980R9)
T3 sequence: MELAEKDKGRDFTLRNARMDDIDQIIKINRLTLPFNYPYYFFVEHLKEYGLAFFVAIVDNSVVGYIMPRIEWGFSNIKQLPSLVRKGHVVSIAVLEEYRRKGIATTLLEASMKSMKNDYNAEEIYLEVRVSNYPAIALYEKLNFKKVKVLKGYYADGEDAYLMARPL

T4: Sulfolobus solfataricus Ard1 (SsArd1), wild type (Sulfolobus solfataricus, UniProt Q980R9 1-167)
T4 construct: N-alpha-acetyltransferase Ard1 of Sulfolobus solfataricus (NatA family); one molecule in the asymmetric unit; also called wild-type SsArd1; source: E. coli BL21 (DE3), purified (Ni-Sepharose, size-exclusion chromatography)
T4 sequence: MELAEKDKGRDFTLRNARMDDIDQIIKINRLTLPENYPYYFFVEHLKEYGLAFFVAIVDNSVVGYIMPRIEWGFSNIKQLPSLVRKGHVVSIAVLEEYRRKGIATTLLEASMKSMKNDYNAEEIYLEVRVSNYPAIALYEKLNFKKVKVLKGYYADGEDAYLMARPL


Assays:
SsArd1 = molecular target: T5, SsArd1 (Saccharolobus solfataricus, UniProt Q980R9); test: X-ray crystal structure, […] Å; assay type: binding; conditions: co-crystallised binary complex; CoA also in ternary complex with peptide
T5 construct: gene ard1; pET28a, C-terminal His6-tag, expressed in E. coli BL21(DE3); monomer

[1] = molecular target: T1, SsArd1 E35A mutant (Sulfolobus solfataricus)
[2] = molecular target: T2, SsArd1 E35V mutant (Sulfolobus solfataricus)
[3] = substrate: CC(=O)SCCNC(=O)CCNC(=O)[C@H](O)C(C)(C)COP(=O)(O)OP(=O)(O)OC[C@H]1O[C@@H](n2cnc3c(N)ncnc32)[C@H](O)[C@@H]1OP(=O)(O)O; test: Ellman (DTNB) acetyltransferase assay, Michaelis-Menten fit; assay type: biochemical, Saccharolobus solfataricus; conditions: saturating Alba peptide (SSGTPT), pH 8.0, 65°C
Source text: Ellman (DTNB) acetyltransferase assay, Michaelis-Menten fit on SsArd1

[4] = molecular target: T3, SsArd1 E35F mutant (Sulfolobus solfataricus)
[5] = molecular target: T4, Sulfolobus solfataricus Ard1 (SsArd1), …; test: crystal structure; SsArd1-CoA crystals soaked with 2 mM Alba peptide (SSGTPT), dehydrated over 12.5% w/v PEG 4,000; ternary SsArd1-CoA/peptide complex at 1.84 Å; conditions: both partners purified
[6] = mutant given as R132A in Table 3, N132A in text

Molecule | Km [3] [µM] | kcat [3] [s⁻¹] | kcat/Km [3] [M⁻¹ s⁻¹] | other results
CC(C)(COP(=O)(O)OP(=O)(O)OC[C@H]1O[C@@H](n2cnc3c(N)ncnc32)[C@H](O)[C@@H]1OP(=O)(O)O)[C@@H](O)C(=O)NCCC(=O)NCCS [CoA] |  |  |  | X-ray crystal structure, 2.13 Å (SsArd1): 4R3K for SsArd1-CoA and 4R3L for SsArd1-CoA/peptide
MEEKVG [SSB peptide (MEEKVG), N-terminal 6-mer of the single-stranded DNA-binding protein SSB] |  |  |  | acetyltransferase activity with the SSB substrate peptide, against wild-type SsArd1 [1]: 8 fold; acetyltransferase activity with the SSB substrate peptide, against wild-type SsArd1 [2]: 5 fold
SsArd1 (Saccharolobus solfataricus P2) (protein, pET28a, C-terminal His6-tag, expressed in E. coli BL21(DE3); monomer) MELAEKDKGRDFTLRNARMDDIDQIIKINRLTLPENYPYYFFVEHLKEYGLAFFVAIVDNSVVGYIMPRIEWGFSNIKQLPSLVRKGHVVSIAVLEEYRRKGIATTLLEASMKSMKNDYNAEEIYLEVRVSNYPAIALYEKLNFKKVKVLKGYYADGEDAYLMARPL | 67.17 ± 7.48 | 0.5595 ± 0.0275 | 8370 | 
SsArd1 (Saccharolobus solfataricus P2; N132A) (protein, pET28a, C-terminal His6-tag, expressed in E. coli BL21(DE3); monomer) MELAEKDKGRDFTLRNARMDDIDQIIKINRLTLPENYPYYFFVEHLKEYGLAFFVAIVDNSVVGYIMPRIEWGFSNIKQLPSLVRKGHVVSIAVLEEYRRKGIATTLLEASMKSMKNDYNAEEIYLEVRVSAYPAIALYEKLNFKKVKVLKGYYADGEDAYLMARPL |  |  |  | Km [3, 6]: 279.37 ± 75.86 µM; kcat [3, 6]: 0.556 ± 0.0647 s⁻¹; kcat/Km [3, 6]: 2050 M⁻¹ s⁻¹
SsArd1 (Saccharolobus solfataricus P2; T105A) (protein, pET28a, C-terminal His6-tag, expressed in E. coli BL21(DE3); monomer) MELAEKDKGRDFTLRNARMDDIDQIIKINRLTLPENYPYYFFVEHLKEYGLAFFVAIVDNSVVGYIMPRIEWGFSNIKQLPSLVRKGHVVSIAVLEEYRRKGIAATLLEASMKSMKNDYNAEEIYLEVRVSNYPAIALYEKLNFKKVKVLKGYYADGEDAYLMARPL | 195.89 ± 12.27 | 0.5818 ± 0.0205 | 2970 | 
SsArd1 (Saccharolobus solfataricus P2; R100A) (protein, pET28a, C-terminal His6-tag, expressed in E. coli BL21(DE3); monomer) MELAEKDKGRDFTLRNARMDDIDQIIKINRLTLPENYPYYFFVEHLKEYGLAFFVAIVDNSVVGYIMPRIEWGFSNIKQLPSLVRKGHVVSIAVLEEYRAKGIATTLLEASMKSMKNDYNAEEIYLEVRVSNYPAIALYEKLNFKKVKVLKGYYADGEDAYLMARPL | 466.98 ± 50.83 | 0.4783 ± 0.0448 | 1020 | 
AAKKRG [Hjc peptide (AAKKRG), N-terminal 6-mer of the Holliday junction-resolving enzyme Hjc] |  |  |  | acetyltransferase activity with the Hjc substrate peptide, against wild-type SsArd1 and the E35A mutant [4]: 2 fold; acetyltransferase activity with the Hjc substrate peptide, against wild-type SsArd1 and the E35A mutant [2]: 2 fold
SSGTPT (N-terminal 6 residues of Alba of Sulfolobus solfataricus, which has Ser at its N-terminus; Only the first 2 residues are seen in the electron density of the ternary complex; also called Alba substrate peptide; 6-mer Alba peptide; source: synthetic peptide (GenScript)) [Alba peptide (SSGTPT), N-terminal 6-mer of the chromatin protein Alba] |  |  |  | binding result [5]: binds
